{"source": "patent US20100292083A1", "about": "(Ablynx, published 2010)", "binders": {"B1": {"name": "IL6R65PMP11E9 (VHH)", "VHH": "EVQLVESGGGLVQPGGSLRLSCAASGTTFKINVMAWYRQAPGKGRELVAAIITGGTTTYADSVKGRFTISRDNAKNTLYLQMNSLRPEDTAVYYCAFVTTNSDYDLGRDYWGQGTLVTVSS"}, "B2": {"name": "IL6R65PMP11E11 (VHH)", "VHH": "EVQLVESGGGLVQPGGSLRLSCAASGTTFKINVMAWYRQAPGKGRKLVAAIINNGNTTYADSVKGRFTISRDNAKNTLYLQMNSLRPEDTAVYYCAFVTTNSDYDLGRDYWGQGTLVTVSS"}, "B3": {"name": "IL6R65PMP11F1 (VHH)", "VHH": "EVQLVESGGGLVQPGGTLRLSCAASGSTFKINVMAWYRQAPGKGRELVAGVITNGSTTYADSVKGRFTISRDNAKNTLYLQMNSLRPEDTAVYYCAFVTTNSDYDLGRDYWGQGTLVTVSS"}, "B4": {"name": "IL6R65PMP11F3 (VHH)", "VHH": "EVQLVESGGGLVQPGGSLRLSCAASGTIFRINVMAWYRQAPGKGRELVAAIISGGSTTYADSVKGRFTISRDNAKNTLYLQMNSLRPEDTAVYYCAFVTTNSDYDLGRDYWGQGTLVTVSS"}, "B5": {"name": "IL6R65PMP11F10 (VHH)", "VHH": "EVQLVESGGGLVQPGGSLRLSCAASGTTFKLNIMAWYRQAPGKGRELVAAVINGGTTTYADSVKGRFTISRDNAKNTLYLQMNSLRPEDTAVYYCAFVTTNSDYDLGRDYWGQGTLVTVSS"}, "B6": {"name": "IL6R65PMP11F12 (VHH)", "VHH": "EVQLVESGGGLVQPGGSLRLSCAASGTTFRVNVMAWYRQAPGKGRELVAAIISGGSTTYADSVKGRFTISRDNAKNTLYLQMNSLRPEDTAVYYCAFVTTNSDYDLGRDYWGQGTLVTVSS"}, "B7": {"name": "IL6R65PMP11G7 (VHH)", "VHH": "EVQLVESGGGLVQPGGSLRLSCAASGTIFKLNVMAWYRQAPGKGRELVAAIITGGTTTYADSVKGRFTISRDNAKNTLYLQMNSLRPEDTAVYYCAFVTTNSDYDLGRDYWGQGTLVTVSS"}, "B8": {"name": "IL6R65PMP11G10 (VHH)", "VHH": "EVQLVESGGGLVQPGGSLRLSCAASGSTFRINVMAWYRQAPGKGRELVAGIITNGTTTYADSVKGRFTISRDNAKNTLYLQMNSLRPEDTAVYYCAFVTTNSDYDLGRDYWGQGTLVTVSS"}, "B9": {"name": "IL6R65PMP11G11 (VHH)", "VHH": "EVQLVESGGGLVQPGGSLRLSCAASGTTFKINVMAWYRQAPGKGRELVAAIITSGTTSYADSVKGRFTISRDNAKNTLYLQMNSLRPEDTAVYYCAFVTTNSDYDLGRDYWGQGTLVTVSS"}, "B10": {"name": "IL6R65PMP11H2 (VHH)", "VHH": "EVQLVESGGGLVQPGGSLRLSCAASGSIFKINVMAWYRQAPGKGRELVAAIINGGTTSYADSVKGRFTISRDNAKNTLYLQMNSLRPEDTAVYYCAFVTTNSDYDLGRDYWGQGTLVTVSS"}, "B11": {"name": "IL6R65PMP11H4 (VHH)", "VHH": "EVQLVESGGGLVQPGGSLRLSCAASGSTFRLNVMAWYRQAPGKGRELVAAIITNGTTTYADSVKGRFTISRDNAKNTLYLQMNSLRPEDTAVYYCAFVTTNSDYDLGRDYWGQGTLVTVSS"}, "B12": {"name": "IL6R65PMP11H10 (VHH)", "VHH": "EVQLVESGGGLVQPGGSLRLTCAASGTTFKVNVMAWYRQAPGKGRELVAAVINGGTTSYADSVKGRFTISRDNAKNTLYLQMNSLRPEDTAVYYCAFVTTNSDYDLGRDYWGQGTLVTVSS"}, "B13": {"name": "IL6R65PMP12C7 (VHH)", "VHH": "EVQLVESGGGLVQPGGSLRLSCAASGSVYRINAMGWYRQAPGKGRELVAGLISAGSTNYADSVKGRFTISRDNAKNTLYLQMNSLRPEDTAVYYCAFVTTNSDYDLGRDYWGQGTLVTVSS"}, "B14": {"name": "IL6R65PMP12C8 (VHH)", "VHH": "EVQLVESGGGLVQPGGSLRLSCAASGTVFKINAMAWYRQAPGKGRELVAGLVSAGTANYADSVKGRFTISRDNAKNTLYLQMNSLRPEDTAVYYCAFVTTNSDYDLGRDYWGQGTLVTVSS"}, "B15": {"name": "IL6R65PMP12E1 (VHH)", "VHH": "EVQLVESGGGLVQPGGSLRLSCAANGSVYKVNAMAWYRQAPGKGRELVAGIVTGGTSNYADSVKGRFTISRDNAKNTLYLQMNSLRPEDTAVYYCAFVTTNSDYDLGRDYWGQGTLVTVSS"}, "B16": {"name": "IL6R65PMP13A2 (VHH)", "VHH": "EVQLVESGGGLVQPGGSLRLSCAASGTIFRVNVMAWYRQAPGKGRELVAAIITDGTTTYADSVKGRFTISRDNAKNTLYLQMNSLRPEDTAVYYCAFVTTNSDYDLGRDYWGQGTLVTVSS"}, "B17": {"name": "IL6R65PMP13A4 (VHH)", "VHH": "EVQLVESGGGLVQPGGSLRLSCAASGTTFRLNVMAWYRQAPGKGRELVAAIITSGTTTYADSVKGRFTISRDNAKNTLYLQMNSLRPEDTAVYYCAFVTTNSDYDLGRDYWGQGTLVTVSS"}, "B18": {"name": "IL6R65PMP13A11 (VHH)", "VHH": "EVQLVESGGGLVQPGGSLRLSCAASGTVFKVNAMAWYRQAPGKGRELVAGVISAGSANYADSVKGRFTISRDNAKNTLYLQMNSLRPEDTAVYYCAFVTTNSDYDLGRDYWGQGTLVTVSS"}, "B19": {"name": "IL6R65PMP13B2 (VHH)", "VHH": "EVQLVESGGGLVQPGGSLRLSCAASGTTFKVNIMAWYRQAPGKGRELVAAIITNGSTTYADSVKGRFTISRDNAKNTLYLQMNSLRPEDTAVYYCAFVTTNSDYDLGRDYWGQGTLVTVSS"}, "B20": {"name": "IL6R65PMP13B3 (VHH)", "VHH": "EVQLVESGGGLVQPGGSLHLSCAASGTIFKINVMAWYRQAPGKGRELVAAIITDGSTTYADSVKGRFTISRDNAKNTLYLQMNSLRPEDTAVYYCAFVTTNSDYDLGRDYWGQGTLVTVSS"}, "B21": {"name": "IL6R65PMP13D2 (VHH)", "VHH": "EVQLVESGGGLVQPGGSLRLSCAASGTTFKVNVMAWYRQAPGKGRELVAAIINDGSTTYADSVKGRFTISRDNAKNTLYLQMNSLRPEDTAVYYCAFVTTNSDYDLGRDYWGQGTLVTVSS"}, "B22": {"name": "IL6R65PMP13D3 (VHH)", "VHH": "EVQLVESGGGLVQPGGSLRLSCAANGTTFKVNVMAWYRQAPGKGRELVAGVITGGTTNYADSVKGRFTISRDNAKNTLYLQMNSLRPEDTAVYYCAFVTTNSDYDLGRDYWGQGTLVTVSS"}, "B23": {"name": "IL6R65PMP13F3 (VHH)", "VHH": "EVQLVESGGGLVQPGGSLRLSCAASGTTFKINVMAWYRQAPGKGRELVAAIITGGTTTYADSVKGRFTISRDNAKNTLYLQMNSLRPEDTAVYYCAFVTTNSDYDLGRDYWGQGTLVTVSS"}, "B24": {"name": "IL6R65PMP13F5 (VHH)", "VHH": "EVQLVESGGGLVQPGGSLRLSCAASGTTFRINVMAWYRQAPGKGRELVAGIITNGSTSYADSVKGRFTISRDNAKNTLYLQMNSLRPEDTAVYYCAFVTTNSDYDLGRDYWGQGTLVTVSS"}, "B25": {"name": "IL6R65PMP13F10 (VHH)", "VHH": "EVQLVESGGGLVQPGGSLRLSCAASGSVFKINAMGWYRQAPGKGRELVAGLISAGSTNYADSVKGRFTISRDNAKNTLYLQMNSLRPEDTAVYYCAFVTTNSDYDLGRDYWGQGTLVTVSS"}, "B26": {"name": "IL6R65PMP13G5 (VHH)", "VHH": "EVQLVESGGGLVQPGGSLRLSCAASGTIFKINIMAWYRQAPGKGRELVAAIINSGSTSYADSVKGRFTISRDNAKNTLYLQMNSLRPEDTAVYYCAFVTTNSDYDLGRDYWGQGTLVTVSS"}, "B27": {"name": "IL6R65PMP13H4 (VHH)", "VHH": "EVQLVESGGGLVQPGGSLRLSCAASGSAFKVNVMAWYRQAPGKGRELVAGVITDGSTNYADSVKGRFTISRDNAKNTLYLQMNSLRPEDTAVYYCAFVTTNSDYDLGRDYWGQGTLVTVSS"}, "B28": {"name": "IL6R65PMP16H6 (VHH)", "VHH": "EVQLVESGGGLVQPGGSLRLSCAASGSVFRINAMAWYRQAPGKGRELVAGFVTGGSSNYADSVKGRFTISRDNAKNTLYLQMNSLRPEDTAVYYCAFVTTNSDYDLGRDYWGQGTLVTVSS"}, "B29": {"name": "IL6R65PMP18B1 (VHH)", "VHH": "EVQLVESGGGLVQPGGSLRLSCAASGSIFKVNAMGWYRQAPGKGRELVAGIISGGSTNYADSVKGRFTISRDNAKNTLYLQMNSLRPEDTAVYYCAFITADTDYDLGKRYWGQGTLVTVSS", "notes": "CDR3 library clone"}, "B30": {"name": "IL6R65PMP18E11 (VHH)", "VHH": "EVQLVESGGGLVQPGGSLRLSCAASGTTFRINVMAWYRQAPGKGRELVAGIITNGSTSYADSVKGRFTISRDNAKNTLYLQMNSLRPEDTAVYYCAFVTTNSDYDLGRDYWGQGTLVTVSS"}, "B31": {"name": "IL6R65PMP18G7 (VHH)", "VHH": "EVQLVESGGGLVQPGGSLRLSCAASGTTFKVNVMAWYRQAPGKGRELVAGIITGGSTTYADSVKGRFTISRDNAKNTLYLQMNSLRPEDTAVYYCAFVTTNSDYDLGRDYWGQGTLVTVSS"}}, "data": [{"molecular_target": "T1, human IL6R (human, UniProt P08887 20-358, limits assumed)", "T1 construct": "Antigen of the Biacore experiments", "T1 sequence (looked up)": "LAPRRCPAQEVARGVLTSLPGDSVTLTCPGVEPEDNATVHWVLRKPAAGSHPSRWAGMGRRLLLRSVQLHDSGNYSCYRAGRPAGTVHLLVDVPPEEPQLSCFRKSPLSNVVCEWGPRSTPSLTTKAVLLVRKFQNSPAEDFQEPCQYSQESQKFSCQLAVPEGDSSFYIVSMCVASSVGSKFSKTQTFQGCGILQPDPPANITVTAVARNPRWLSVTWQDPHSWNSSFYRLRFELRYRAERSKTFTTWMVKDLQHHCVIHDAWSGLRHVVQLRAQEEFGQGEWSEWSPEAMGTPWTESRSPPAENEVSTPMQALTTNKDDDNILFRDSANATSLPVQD", "experiment": "SPR (Biacore), periplasmic extract", "protocol": "Selection outputs were analyzed by picking individual colonies and growing them overnight in 1 ml 2×YT (Yeast Tryptone) medium+100 ug/ml Carbenicillin at 37 C. Nanobody containing periplasmic extracts were prepared, diluted 1/10 in PBS and subsequently tested for antigen binding in ELISA. Clones with the highest ELISA signals were sequenced and analyzed on Biacore. […] The off-rate of the best clone from the CDR3 library was 7×10e-4 s-1.", "units": {"koff": "s⁻¹"}, "values": [{"binder": "B1", "koff": 0.00035}, {"binder": "B2", "koff": 0.00049}, {"binder": "B3", "koff": 0.00037}, {"binder": "B4", "koff": 0.00048}, {"binder": "B5", "koff": 0.0013}, {"binder": "B6", "koff": 0.00067}, {"binder": "B7", "koff": 0.00036}, {"binder": "B8", "koff": 0.00021}, {"binder": "B9", "koff": 0.0005}, {"binder": "B10", "koff": 0.0003}, {"binder": "B11", "koff": 0.0008}, {"binder": "B12", "koff": 0.00043}, {"binder": "B13", "koff": 0.00091}, {"binder": "B14", "koff": 0.00066}, {"binder": "B15", "koff": 0.00026}, {"binder": "B16", "koff": 0.00061}, {"binder": "B17", "koff": 0.00072}, {"binder": "B18", "koff": 0.00083}, {"binder": "B19", "koff": 0.0014}, {"binder": "B20", "koff": 0.00076}, {"binder": "B21", "koff": 0.0011}, {"binder": "B22", "koff": 0.00048}, {"binder": "B23", "koff": 0.00046}, {"binder": "B24", "koff": 0.00037}, {"binder": "B25", "koff": 0.0011}, {"binder": "B26", "koff": 0.00069}, {"binder": "B27", "koff": 0.00052}, {"binder": "B28", "koff": 0.00032}, {"binder": "B29", "koff": 0.00072}, {"binder": "B30", "koff": 0.00027}, {"binder": "B31", "koff": 0.0003}]}]}
